Usually IC50 stands for the concentration that gives 50% inhibition.

Like-named read-outs stand apart in the source and are kept apart here.

The target of one experiment is TICA0049 Fab. Nature of the experiment: HTRF competition binding selectivity assay, TICA0049 His-Fab. Details: species or system human. The protocol:
(§1) Total Binding control wells were set up which contained all of the assay components above except that 5 ul assay buffer was added in place of the test selectivity compound addition. Negative Binding control wells were set up which contained all of the assay components included in the Total Binding control wells except that 5ul assay buffer was added in place of the His-Fab addition. Test compound serial titrations were either ½ or ⅓ depending on the particular experiment and top final assay compound concentrations were optimized on a compound specific basis. The concentration of biotinylated ticagrelor and His-Fab was optimized on a Fab specific basis in separate experiments. For the four Fabs investigated at the end of the lead isolation phase (TICA0010, TICA0049, TICA0053 and TICA0072) the final assay reagent concentrations used are set out in Table 1 below:
(§2) For the two Fabs investigated at the end of the lead optimization phase (TICA0162 and TICA0212) the final assay reagent concentrations used were 5nM biotinylated ticagrelor and 1 nM His Fab in both cases. […] In order to enable subsequent normalization of data to correct for any such vehicle related effects parallel titrations of DMSO alone were included in most experiments in which the final assay DMSO concentrations mirrored those of the test compound serial dilutions. At the end of the set up procedure that assay was incubated for 3hrs at RT before being read on an Envision plate reader using a standard read protocol.
(§3) The negative ratio value used in the calculation of % Delta F was derived from the Negative Binding control wells. % Delta F values were then used to calculate % Specific Binding values according to the equation below: Specific Binding (%)={(Sample Delta F−Negative Binding Delta F)/(Total Binding Delta F−Negative Binding Delta F)}×100
(§4) For standard calculations of % Specific Binding Total Binding Delta F was taken from Total Binding control wells which contained all of the aforementioned components of the assay but without inclusion of any competing test compound.
(§5) In those experiments where DMSO normalization was applied DMSO normalised % Specific Binding was calculated essentially according to the equation above except that in this case Total Binding Delta F was taken from wells containing all of the components in the Total Binding control wells as well as DMSO at a concentration equivalent to that in the relevant sample well.
In a second series of experiments further selectivity data was generated for TICA0049 and TICA0072 Fabs in which a subset of four of the twelve compounds listed in FIG. 4 were retested along with ticagrelor, TAM and TIM and several adenosine related compounds. Here, in a refinement to the earlier investigations in Table 2, experiments were designed in order to enable normalisation of percent specific binding values to correct for any non-specific vehicle related effects due to DMSO. Example plotted data from this second series of experiments is shown in FIG. 5A-F along with tabulated IC50 values in Table 3.

A further experiment concerns the target TICA0010 Fab. Nature of the experiment: HTRF competition binding selectivity assay, TICA0010 His-Fab. Also on record: species or system human. The conditions noted are these: first series (Table 2), not DMSO normalised; read-out: IC50 (uM) for inhibition of biotinylated ticagrelor binding to TICA00l0 his-Fab. The protocol: as §1, §2, §3, §4, §5
Experiment [1] relates to ticagrelor mediated inhibition of ADP-induced platelet aggregation. Nature of the experiment: Light transmission aggregometry in human PRP, reversal of ticagrelor. It is filed as cell-based. The following applies: for mean extent of reversal of ticagrelor mediated inhibition: Example 10, 1 μM Fab, n=3. Here is the method:
The extent and potency of TICA0212/MEDI2452 to reverse ticagrelor or TAM mediated inhibition of ADP-induced platelet aggregation was determined in human platelet rich plasma (PRP) using light transmission aggregometry.
For the in vitro human PRP assay, blood was collected from fasted healthy volunteers by vein puncture of vena cephalica. […] The anticoagulated human blood was centrifuged at 240× g for 15 min. PRP was carefully removed and transferred to a clean vial. Platelet poor plasma (PPP) was prepared by centrifugation of the PRP at 2000× g for 15 min. Light transmission aggregometry (LTA) was evaluated in PRP by the Platelet Aggregation Profiler (PAP-8E, Bio/Data Corporation, PA, USA.). Zero % aggregation was defined as the light transmission of PRP and 100% aggregation was defined as the light transmission of PPP.
PRP was preincubated with 1 μM ticagrelor or TAM for 1 hour before co-incubating with different concentrations of TICA0212 or an isotype control Fab for 30 minutes. Platelet aggregation was initiated by addition of 20 uM ADP and was continuously recorded for 6 min. Data for final aggregation (FA) extent at 6 min was analysed.
The time of onset of TICA0212/MEDI2452 to reverse ticagrelor or TAM was determined in human platelet rich plasma (PRP) using light transmission aggregometry as in example 8. PRP was preincubated with 1 μM ticagrelor or TAM for 1 hour before adding 1 μM TICA0212/MEDI2452 and co-incubating for 5, 10, 15, 30 and 60 min, or adding an isotype control Fab for 30 min. Platelet aggregation was initiated by addition of 20 μM ADP and was continuously recorded for 6 min. Data for final aggregation (FA) extent at 6 min was analyzed.

Experiment [2] concerns the target TICA0159 IgG binding to biotinylated ticagrelor. Nature of the experiment: Second generation HTRF epitope competition assay. Here is the method: Purified parent TICA0072 (scFv or Fab) was used as a benchmark in all experiments such that improvements in IC50 measured with optimized variants (scFv or Fab) could be expressed as fold improvements over parent TICA0072. Total Binding Control Wells contained all assay components except that 5 ul assay buffer was added in place of the purified scFv or Fab sample. Negative Binding control wells contained all of the components of the Total Binding control wells except that 5 ul of assay buffer was added in place of the TICA0072 IgG.
In both single point HTS and multipoint IC50 profiling versions of the assay. plates were incubated for 3 hrs at RT before being read on an Envision plate reader using a standard HTRF read protocol in which samples are excited at 337 nm and time resolved fluorescence emission is measured at both 620 nm and 665 nM.
Raw 665 nm and 620 nm counts were used to calculate Delta F (%) and % Specific Binding according to the equations described earlier in Assays 1 and 4, respectively. For multipoint secondary profiling experiments IC50 values were determined using Graphpad Prism software using sigmoidal dose response (variable slope) curve fitting (4 parameter logistic equation).
This assay was used only in multipoint IC50 profiling format (as opposed to HTS format) and was performed essentially identically to the method given in Assay 5 (above) for multipoint IC50 profiling of purified Fab variants in the parent TICA0072 IgG based epitope competition assay. The only difference being that TICA0159 IgG was used in place of TICA0072 IgG at the appropriate point in the assay set up but at the same 16nM final assay concentration. In all other respects this assay was performed exactly as described above in the multipoint secondary profiling version for purified Fab.
Background: Time-resolved FRET reads energy transfer from a long-lived donor to a nearby acceptor.

As to `CCCSc1nc(N[C@@H]2C[C@H]2c2ccc(F)c(F)c2)c2nnn([C@@H]3C[C@H](OCCO)[C@@H](O)[C@H]3O)c2n1` [Ticagrelor, (1S,2S,3R,5S)-3-[7-{[(1R,2S)-2-(3,4-difluorophenyl)cyclopropyl]amino}-5-(propylthio)-3H-[1,2,3]triazolo[4,5-d]pyrimidin-3-yl]-5-(2-hydroxyethoxy)cyclopentane-1,2-diol], the IC50 on TICA0049 Fab (first series (Table 2), not DMSO normalised, read-out: IC50 (uM) for inhibition of biotinylated ticagrelor binding to TICA0049 his-Fab) was found to be 0.257 µM; on TICA0049 Fab (second series (Table 3), DMSO normalised, read-out: IC50 in competition binding selectivity studies, TICA0049), 0.368 µM; on TICA0010 Fab, 0.122 µM.

B1: TICA0212: combination of TICA0162 and TICA0152; VH SEQ ID NO:72, VL SEQ ID NO:77 (antibody, listed as Homo sapiens, V domains shown)
VH: QVQLQESGAEVKKPGSSVRVSCKASGGTFDSYSIHWVRQAPGQGLEWMGGIIPAFGTLSSAQDFQARVTISADKSTSTAYMELSGLRSEDTAVYYCARGSFDYYFWSASHPPNDALAIWGQGTLVTVSS
VL: QSVVTQPPSVSAAPGQKVTISCSGSNSDIGNNYVSWYQQLPGTAPKLLIYDNNKRPSGIPDRFSGSKSGTSATLAITGLQAGDEADYYCGTWLYDRAVGLFGGGTKVTVL
On to B1, for which the IC50 in experiment [1] (1 μM ticagrelor, 20 μM ADP, human PRP, 30 min co-incubation, mean n=5, read-out: IC50, half-maximum reversal of ticagrelor mediated inhibition of ADP-induced platelet aggregation) came to 640 nM; in experiment [2] (Fab, 16 nM TICA0159 IgG, 1 nM biotinylated ticagrelor) it was 12 nM. For the same molecule, the “mean extent of reversal of ticagrelor” value in experiment [1] (Example 9, 1:1 conditions (1 μM Fab: 1 μM ticagrelor), 30 min incubation) amounted to 78%. For the same molecule, the “mean extent of reversal of ticagrelor mediated inhibition” value in experiment [1] (1 μM ticagrelor, co-incubation 5 min) was 85%; in experiment [1] (1 μM ticagrelor, co-incubation 10 min), 69%; in experiment [1] (1 μM ticagrelor, co-incubation 15 min), 74%; in experiment [1] (1 μM ticagrelor, co-incubation 30 min), 80%; in experiment [1] (1 μM ticagrelor, co-incubation 60 min) it was 81%. Further, the “Fold Improved” value in experiment [2] (IC50 relative to parent TICA0072 Fab) is recorded as 142.8. Besides, the “improvement in IC50 relative to the parent TICA0072 Fab” value in experiment [2] (second generation epitope competition assay) is reported as “approximately 2 log”.

(Values after patent publication US12391768B2, “Antibodies to ticagrelor and methods of use” (MEDIMMUNE LIMITED, priority 2014, dated 2025).)
